Test results reported in article PMC10599318, “RNA-sequencing analysis reveals novel genes involved in the different peel color formation in eggplant”.

T1: SmMYB113 (Solanum melongena, UniProt A0A0A0QP33 1-256)
T1 sequence: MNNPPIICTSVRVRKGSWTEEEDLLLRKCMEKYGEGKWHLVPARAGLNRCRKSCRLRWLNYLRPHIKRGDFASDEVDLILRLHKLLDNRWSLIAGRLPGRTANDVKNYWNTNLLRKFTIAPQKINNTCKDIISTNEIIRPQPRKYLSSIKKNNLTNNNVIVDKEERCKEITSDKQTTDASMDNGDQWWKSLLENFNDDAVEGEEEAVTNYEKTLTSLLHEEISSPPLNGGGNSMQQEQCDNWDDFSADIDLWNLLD

B1: SmMATE probe (dsDNA)
DNA 1: AACAATTGCTATAACTACAGTTAGGGAATGCAATTACCG
DNA 2: CGGTAATTGCATTCCCTAACTGTAGTTATAGCAATTGTT
B2: SmCytb5 probe (dsDNA)
DNA 1: TCCAAGTTTTTTTCTTTGGTTGATAATTTTATCTAACG
DNA 2: CGTTAGATAAAATTATCAACCAAAGAAAAAAACTTGGA
B3: SmASAT3 probe (dsDNA)
DNA 1: TTGGTTTTTATGGGCACAGTTGCTACTATGGGTGAATA
DNA 2: TATTCACCCATAGTAGCAACTGTGCCCATAAAAACCAA
B4: SmGST probe (dsDNA)
DNA 1: CAGACTTTCCACTCAACCACTGGTTGCTGCTCATCTTCA
DNA 2: TGAAGATGAGCAGCAACCAGTGGTTGAGTGGAAAGTCTG
B5: SmF3'5'M probe (dsDNA)
DNA 1: TTTTTTTTTTGCTTAGACAACTGGCAAGGATTTTACTAA
DNA 2: TTAGTAAAATCCTTGCCAGTTGTCTAAGCAAAAAAAAAA

These binders were tested against T1, SmMYB113 (assay: EMSA; EMSA per manufacturer's instructions (Thermo Pierce); buffer, salt, pH and temperature not stated; unlabeled competitor 10x, 30x, 100x). Settings: protein: recombinant; tags: His (pET32a fusion); label: biotin; blunt.

Binding result, binds:
B1
B2
B3
B4
B5
